Reference: article PMC11430399, “Cold-induced degradation of core clock proteins implements temperature compensation in the Arabidopsis circadian clock” (Science Advances, 2024)

Biological target: T1, LOV KELCH PROTEIN 2 fused with GFP (LKP2-GFP) (Arabidopsis thaliana, UniProt Q8W420 1-611)
T1 construct: LKP2, Arabidopsis thaliana, AT2G18915; Own promoter-driven genomic LKP2; source: Arabidopsis 35Sp:PRR5-F/lkp2-cr3/LKP2-GFP transgenic seedlings, in protein extract
Assay: co-IP; LKP2-GFP immunoprecipitated with anti-GFP antibodies from 35Sp:PRR5-F/lkp2-cr3/LKP2-GFP seedlings kept at 12° or 28°C for 24 hours with MG132; PRR5-FLAG detected by Western blot; three biological replicates
Conditions: partners not purified

T1 sequence (Q8W420 whole entry, the tested form may be a part): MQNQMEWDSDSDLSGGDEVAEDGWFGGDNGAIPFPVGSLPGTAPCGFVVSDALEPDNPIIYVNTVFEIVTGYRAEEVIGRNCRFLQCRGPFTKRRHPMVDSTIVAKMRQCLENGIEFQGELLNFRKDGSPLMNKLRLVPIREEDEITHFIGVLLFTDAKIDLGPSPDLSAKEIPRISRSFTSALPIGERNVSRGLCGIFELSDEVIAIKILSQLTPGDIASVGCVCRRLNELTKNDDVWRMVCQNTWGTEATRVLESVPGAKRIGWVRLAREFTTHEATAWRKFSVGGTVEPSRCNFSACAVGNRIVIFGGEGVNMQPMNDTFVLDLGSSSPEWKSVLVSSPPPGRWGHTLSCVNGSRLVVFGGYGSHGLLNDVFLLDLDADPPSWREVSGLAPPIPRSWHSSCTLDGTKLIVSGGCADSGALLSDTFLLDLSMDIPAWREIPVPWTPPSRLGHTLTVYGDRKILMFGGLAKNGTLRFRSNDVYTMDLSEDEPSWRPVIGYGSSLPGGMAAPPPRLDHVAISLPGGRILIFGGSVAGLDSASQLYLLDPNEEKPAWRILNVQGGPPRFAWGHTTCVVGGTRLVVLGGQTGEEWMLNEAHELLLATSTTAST

fold of co-immunoprecipitated PRR5-FLAG at 12°C against 28°C: 15.9 fold
B1: PSEUDO-RESPONSE REGULATOR 5 with a C-terminal triple FLAG tag (PRR5-FLAG) (natural protein, Arabidopsis thaliana, UniProt Q6LA42 1-558, looked up)
chain: MTSSEEVVEVTVVKAPEAGGGKLSRRKIRKKDAGVDGLVKWERFLPKIALRVLLVEADDSTRQIIAALLRKCSYRVAAVPDGLKAWEMLKGKPESVDLILTEVDLPSISGYALLTLIMEHDICKNIPVIMMSTQDSVNTVYKCMLKGAADYLVKPLRRNELRNLWQHVWRRQTSLAPDSFPWNESVGQQKAEGASANNSNGKRDDHVVSGNGGDAQSSCTRPEMEGESADVEVSARDAVQMECAKSQFNETRLLANELQSKQAEAIDFMGASFRRTGRRNREESVAQYESRIELDLSLRRPNASENQSSGDRPSLHPSSASAFTRYVHRPLQTQCSASPVVTDQRKNVAASQDDNIVLMNQYNTSEPPPNAPRRNDTSFYTGADSPGPPFSNQLNSWPGQSSYPTPTPINNIQFRDPNTAYTSAMAPASLSPSPSSVSPHEYSSMFHPFNSKPEGLQDRDCSMDVDERRYVSSATEHSAIGNHIDQLIEKKNEDGYSLSVGKIQQSLQREAALTKFRMKRKDRCYEKKVRYESRKKLAEQRPRIKGQFVRQVQSTQAP
notes: PRR5, Arabidopsis thaliana; source: Arabidopsis 35Sp:PRR5-F transgenic seedlings (also 35Sp:PRR5-F/lkp2-cr3/LKP2-GFP), in protein extract; not shown: 3xFLAG, C-terminal, kept
